Data on one molecule can be found in patent US7569390 (MEDICAL RESEARCH COUNCIL, dated 2009).

The test deals with T1, Syk/BTM116 (LexA-Syk bait) (E. coli, UniProt P48025 1-629).
T1 construct: also called pLexA-Syk; not shown: E. coli LexA domain of vector pBTM116
As to the kind of experiment: yeast two-hybrid (L40), β-galactosidase assay; FIG. 2B row 2, empty pVP16 control.

T1 sequence (P48025 whole entry, the tested form may be a part): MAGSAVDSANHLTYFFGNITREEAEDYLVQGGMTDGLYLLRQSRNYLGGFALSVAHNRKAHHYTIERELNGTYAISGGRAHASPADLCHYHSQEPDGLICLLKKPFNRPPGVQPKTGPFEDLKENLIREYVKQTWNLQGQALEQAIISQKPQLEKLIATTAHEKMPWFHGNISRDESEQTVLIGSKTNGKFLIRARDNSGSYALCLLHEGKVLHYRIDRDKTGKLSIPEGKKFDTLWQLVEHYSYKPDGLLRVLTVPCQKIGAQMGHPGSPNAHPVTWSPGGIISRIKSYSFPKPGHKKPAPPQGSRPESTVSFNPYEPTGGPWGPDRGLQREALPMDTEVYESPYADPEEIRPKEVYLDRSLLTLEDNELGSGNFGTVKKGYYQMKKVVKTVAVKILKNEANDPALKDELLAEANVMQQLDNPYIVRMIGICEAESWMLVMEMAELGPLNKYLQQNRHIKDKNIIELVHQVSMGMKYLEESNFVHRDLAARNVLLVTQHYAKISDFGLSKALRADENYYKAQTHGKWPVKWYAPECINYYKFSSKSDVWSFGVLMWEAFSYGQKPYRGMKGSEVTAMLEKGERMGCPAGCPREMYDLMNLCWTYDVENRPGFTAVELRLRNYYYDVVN

B1: VP16 vector alone (pVP16, no scFv insert) (other)
chain: STAPPTDVSLGDELHLDGEDVAMAHADALDDFDLDMLGDGDSPGPGFTPHDSAPYGALDMADFEFEQMFTDALGIDEYGG
notes: also called empty pVP16 vector
As to B1, the binding result is “no binding”.
